In publication doi:10.1101/659029:

Molecular target: Prp43p;Ntr1p (1-120) (Saccharomyces cerevisiae (budding …, UniProt P53131;Q06411 1-767;1-120, |))
Assay: EMSA

Chain of Prp43p;Ntr1p (1-120) (Saccharomyces cerevisiae (P53131 whole entry, chain 1 of 2): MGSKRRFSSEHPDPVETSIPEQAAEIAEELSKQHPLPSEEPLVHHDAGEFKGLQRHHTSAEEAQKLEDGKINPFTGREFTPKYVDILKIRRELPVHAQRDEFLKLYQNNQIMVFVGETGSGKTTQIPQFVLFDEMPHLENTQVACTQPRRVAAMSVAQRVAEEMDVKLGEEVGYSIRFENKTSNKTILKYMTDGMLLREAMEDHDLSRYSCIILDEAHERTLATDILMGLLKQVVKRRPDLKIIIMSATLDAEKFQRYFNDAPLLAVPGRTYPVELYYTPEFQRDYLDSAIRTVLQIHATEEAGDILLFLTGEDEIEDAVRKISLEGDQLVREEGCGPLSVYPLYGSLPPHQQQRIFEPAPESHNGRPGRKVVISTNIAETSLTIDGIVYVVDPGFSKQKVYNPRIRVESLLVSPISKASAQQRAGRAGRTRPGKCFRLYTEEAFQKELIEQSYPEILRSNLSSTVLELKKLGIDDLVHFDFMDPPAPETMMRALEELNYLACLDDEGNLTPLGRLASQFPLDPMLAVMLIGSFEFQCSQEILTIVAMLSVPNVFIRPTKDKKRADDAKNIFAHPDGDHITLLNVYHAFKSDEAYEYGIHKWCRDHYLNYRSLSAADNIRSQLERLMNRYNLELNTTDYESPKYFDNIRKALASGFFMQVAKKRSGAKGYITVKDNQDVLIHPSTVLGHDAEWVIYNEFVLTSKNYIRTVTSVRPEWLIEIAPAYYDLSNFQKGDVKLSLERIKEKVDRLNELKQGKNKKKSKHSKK
Chain of Prp43p;Ntr1p (1-120) (Saccharomyces cerevisiae (Q06411 1-120, chain 2 of 2): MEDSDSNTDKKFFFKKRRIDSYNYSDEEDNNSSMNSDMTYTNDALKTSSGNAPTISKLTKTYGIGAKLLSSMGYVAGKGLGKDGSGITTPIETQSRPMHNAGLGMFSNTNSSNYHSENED

Row | Binder | binding result
1 | substrate-4 (RNA-4/Cy5 DNA) (mixed, strand 1 RNA with DNA at nt 17-24 (duplex end proximal to overhang)) DNA 1: GGCACCAACACAAAACACATCTACACUCAACAAUCACUUU DNA 2: GTAGATGTGTTTTGTGTTGGTGCC | binds
2 | substrate-5 (RNA-5/Cy5 DNA) (mixed, strand 1 RNA with DNA at nt 9-16 (middle of duplex)) RNA: GGCACCAACACAAAACACAUCUACACUCAACAAUCACUUU DNA: GTAGATGTGTTTTGTGTTGGTGCC | binds
3 | substrate-1 (RNA-1/Cy5 DNA) (DNA:RNA) RNA: GGCACCAACACAAAACACAUCUACACUCAACAAU DNA: GTAGATGTGTTTTGTGTTGGTGCC | binds
